Where a chain is given by its changes, count along the chain named.

We go through ten molecules from patent US20230348616A1.

Among the targets are 5A; 7F; 4A; 1F; 2M; 3A; 6L.
Common to all, as to experiment: flow cytometry on peptide-pulsed T2 cells, scFv 100 nM
For orientation: A flow cytometer gives signals particle by particle.

B1: NYA-2047 (scFv)
scFv: GQVQLVESGGGVVQPGRSLRLSCAASGFSIRSYDMHWVRQAPGKGLEWVATISYDGSQKYYADSVKGRFTISRDNSKNTLYLQMSSLRAEDTAVYHCARGSSGHYEAFDIWGQGTLVTVSSGGGGSGGGGSGGGGSQSVLTQPPSVSAAPGQKVTISCSGSSSNIGNWYVSWYQQLPGTAPKLLIYDNNKRPSGIPDRFSGSKSGTSATLGITGLQTGDEADYYCGTWDSSLSAPWVFGGGTKVTVLGAAAGAGGDYKDDDDKGAAAHHHHHH
For the molecule B1, the figures for the standardized gMFI with 5A and in the assay with 7F were 1.03 and 3.11, respectively.

B2: NYA-2044 (scFv)
scFv: B1 scFv with Q2E, V12L, R17G, M35I, Q40L, N75E, S85N
In the assay with 5A, B2 registered a standardized gMFI of 2.2.

B3: NYA-1143 (scFv)
scFv: GEVQLVESGGGVVQPGRSLTPSCSASGFSIRSYDIHWVRLAPGKGLEWVATISYDGSQKYFADSVKGRFTIFRDESENMVYLQMSGLRVEDTAVYHCARGSSGHYEAFDIWGQGTMVTVSSGGGGSGGGGSGGGGSQSVLTQPPSVSAAPGQKVTISCSGSSSNIGNWYVSWYQQLPGTAPKLLIYDNNKRPSGIPDRFSGSKSGTSATLGITGLQTGDEADYYCGTWDSSLSAPWVFGGGTKVTVLGAAAGAGGDYKDDDDKGAAAHHHHHH
Take B3: the standardized gMFI with 4A amounted to 5.91; with 1F, 1.77; with 7F, 4.26.

B4: NYA-2035 (scFv)
scFv: B3 scFv with Y169K
With B4, the standardized gMFI is 2.27 with 5A and 2.16 in the assay with 4A.

B5: NYA-1154 (scFv)
scFv: B3 scFv with I35M, L40Q, G103N, W168N, Q175R, T227A
B5: the standardized gMFI came to 1.12 in the assay with 5A and 3.98 with 1F.

B6: NYA-2023 (scFv)
scFv: B3 scFv with L40Q
As to B6, the standardized gMFI with 5A was 1.21.

B7: NYA-1163 (scFv)
scFv: B3 scFv with W168N
Consider B7, for which the standardized gMFI was 1.85 with 2M, 1.7 with 3A, 1.11 in the assay with 7F and 1.74 in the assay with 6L.

B8: NYA-2143 (scFv)
scFv: B3 scFv with Q175R
For the molecule B8, the standardized gMFI with 5A came to 4.3; with 7F, 5.26.

B9: NYA-2048 (scFv)
scFv: GQVQLVESGGGVVQPGRSLRLSCAASGFSIRSYDMHWVRQAPGKGLEWVATISYDGSQKYYADSVKGRFTISRDNSKNTLYLQMSSLRAEDTAVYHCARGSSGHYEAFDIWGQGTLVTVSSGGGGSGGGGSGGGGSQSVLTQPPSASGTPGQRVTISCSGSSSNIGNWYVSWYQQLPGTAPKLLIYDNNKRPSGVPDRFSGSKSGTSASLAISGLQSEDEADYYCGTWDSSLSAPWVFGGGTKLTVLGAAAGAGGDYKDDDDKGAAAHHHHHH
With B9, the standardized gMFI with 7F was determined as 1.46.

B10: NYA-2045 (scFv)
scFv: B9 scFv with Q2E, V12L, R17G, M35I, Q40L, N75E, S85N
Regarding B10, the standardized gMFI worked out at 0.94 in the assay with 5A and 1.17 in the assay with 4A.
